Assay results as given in patent publication US20050182242A1, “Global analysis of protein activities using proteome chips” (priority 2001, published 2005).

B1: SDS22: yeast GST-HisX6 fusion protein on proteome chip (protein, UniProt P36047 1-338, looked up)
Protein phosphatase 1 …: MDKNSVNKDSEEKDERHKIEVVDDTNPDFITADSELTQDLPDDVEVIDLVHLKIKSLEDLNLYRFKNLKQLCLRQNLIESISEVEVLPHDKIVDLDFYDNKIKHISSNVNKLTKLTSLDLSFNKIKHIKNLENLTDLENLYFVQNSISKIENLSTLKSLKNLELGGNKVHSIEPDSFEGLSNLEEIWLGKNSIPRLINLHPLKNLKILSIQSNKLKKIENLEELTNLEELYLSHNFITKIEGLEKNLKLTTLDVTSNKITSLENLNHLSNLTDIWASFNKIDQSFESLGENLSALSRLETIYLEGNPIQLENKTSYRRKLTMNLPPSLQKIDATYIRG
modifications: GST-HisX6 tag
notes: yeast GST-HisX6 fusion protein on proteome chip
B2: VAC7: yeast GST-HisX6 fusion protein on proteome chip (protein, UniProt P53950 1-1165, looked up)
Vacuolar segregation protein 7: MTEEDRKLTVETETVEAPVANNLLLSNNSNVVAPNPSIPSASTSTSPLHREIVDDSVATANTTSNVVQHNLPTIDNNLMDSDATSHNQDHWHSDINRAGTSMSTSDIPTDLHLEHIGSVSSTNNNSNNALINHNPLSSHLSNPSSSLRNKKSSLLVASNPAFASDVELSKKKPAVISNNMPTSNIALYQTARSANIHGPSSTSASKAFRKASAFSNNTAPSTSNNIGSNTPPAPLLPLPSLSQQNKPKIIERPTMHVTNSREILLGENLLDDTKAKNAPANSTTHDNGPVANDGLRIPNHSNADDNENNNKMKKNKNINSGKNERNDDTSKICTTSTKTAPSTAPLGSTDNTQALTASVSSSNADNHNNNKKKTSSNNNGNNSNSASNKTNADIKNSNADLSASTSNNNAINDDSHESNSEKPTKADFFAARLATAVGENEISDSEETFVYESAANSTKNLIFPDSSSQQQQQQQQPPKQQQQQQNHGITSKISAPLLNNNKKLLSRLKNSRHISTGAILNNTIATISTNPNLNSNVMQNNNNLMSGHNHLDELSSIKQEPPHQLQQQQPPMDVQSVDSYTSDNPDSNVIAKSPDKRSSLVSLSKVSPHLLSSTSSNGNTISCPNVATNSQELEPNNDISTKKSLSNSTLRHSSANRNSNYGDNKRPLRTTVSKIFDSNPNGAPLRRYSGVPDHVNLEDYIEQPHNYPTMQNSVKKDEFYNSRNNKFPHGLNFYGDNNVIEEENNGDSSNVNRPQHTNLQHEFIPEDNESDENDIHSMFYYNHKNDLETKPLISDYGEDEDVDDYDRPNATFNSYYGSASNTHELPLHGRMPSRSNNDYYDFMVGNNTGNNNQLNEYTPLRMKRGQRHLSRTNNSIMNGSIHMNGNDDVTHSNINNNDIVGYSPHNFYSRKSPFVKVKNFLYLAFVISSLLMTGFILGFLLATNKELQDVDVVVMDNVISSSDELIFDITVSAFNPGFFSISVSQVDLDIFAKSSYLKCDSNGDCTVMEQERKILQITTNLSLVEESANNDISGGNIETVLLGTAKKLETPLKFQGGAFNRNYDVSVSSVKLLSPGSREAKHENDDDDDDDGDDGDDENNTNERQYKSKPNARDDKEDDTKKWKLLIKHDYELIVRGSMKYEVPFFNTQKSTAIQKDSMVHPGKK
modifications: GST-His6 tag
notes: as for B1
B3: BUD32: yeast GST-HisX6 fusion protein on proteome chip (protein, UniProt P53323 1-261, looked up)
EKC/KEOPS complex subunit …: MTQEFIDKVSSYLTPDVDIAPISQGAEAIVFTTTTHPYLPRAKDSHQKYIIKYRPPKRYRHPQIDQALTKHRTLNESRLLAKLYLIPGLCVPQLIACDPYNGFIWLEFLGEDLPGGHGFSNLKNFLWMHDQDPYSDLVATTLRKVGRQIGLLHWNDYCHGDLTSSNIVLVRDGARWTPHLIDFGLGSVSNLVEDKGVDLYVLERAILSTHSKHAEKYNAWIMEGFEEVYREQGAKGAKKLKEVTKRFEEVRLRGRKRSMLG
modifications: GST-His6 fusion tag
notes: as for B1
B4: CAK1: yeast GST-HisX6 fusion protein on proteome chip (protein, UniProt P43568 1-368, looked up)
Serine/threonine-protein …: MKLDSIDITHCQLVKSTRTARIYRSDTYAIKCLALDFDIPPHNAKFEVSILNKLGNKCKHILPLLESKATDNNDLLLLFPFEEMNLYEFMQMHYKRDRRKKNPYYDLLNPSIPIVADPPVQKYTNQLDVNRYSLSFFRQMVEGIAFLHENKIIHRDIKPQNIMLTNNTSTVSPKLYIIDFGISYDMANNSQTSAEPMDSKVTDISTGIYKAPEVLFGVKCYDGGVDVWSLLIIISQWFQRETSRMGHVPAMIDDGSDDMNSDGSDFRLICSIFEKLGIPSIQKWEEVAQHGSVDAFVGMFGADGDGKYVLDQEKDVQISIVERNMPRLDEIADVKVKQKFINCILGMVSFSPNERWSCQRILQELEKP
modifications: GST-HisX6 tag
notes: as for B1
B5: SPO1: yeast GST-HisX6 fusion protein on proteome chip (protein, UniProt P53541 18-631, looked up)
Putative meiotic …: TAPFQVQCPSSPLIREAKHELCPEETLYLKKKKIKTKNKLIQFLKSLTEAKFSSKFYKRVLKDPPKIGIAISGGGYRSMLVGTGFISQMNDYGLFEYSDYIAGLSGGSWILMDLVVQNFEVKSLLQEWDLEEDLLLGIPEFDISEEEIVTNAKKEYNDNDLKMKKRQGGSLITSSSNFYEQIEEIMNSIEEIPEDYMITKRNLNPLARLKKIFFPNNTFTGTDAKIETFKKVLDFYKSLHLKIKPKKMEGFQISFTDYWGKAIVQRLKKNFDDDPNHSFSFSKLVNSSKKFKECSVPIPIFVANCKNGLLSNVIFEFTPFEFGSWENILRLFVKLPYLGSKIVSGKAEKCINNFDDLGFITATSSSIFNNVLIFIWNLASQSSREAMKALNMVMGIFGLGKEEIFSISKDSSRLETDYAVYQPNPFYLYPEKDNVLTNKNHLYLVDGGEDGENIPLRTLVIPERELDVIFVLDSSSDIDNYPNGSKLKRIFEKLDEENVHYQFPNNVKTFTHPIVIGCNATKRTGHDSFLPIIIYHANANHGNASNTSTFKITYNQSEVSSMLPTGRGVFSNDYDLYYKNCLGCILTKRTMDRLPRKKKFSPFCLQCFKDYCYS
modifications: GST-His6 tag
notes: as for B1
B6: YEL064C: yeast GST-HisX6 fusion protein on proteome chip (protein, UniProt P39981 1-480, looked up)
Vacuolar amino acid …: MSELGEYSKLENKELRTEFELTNFPFPGTTDNDSDDGSQGQNSLNIITPDMDDTLVNDVLRENDKKSSMRMAFMNLANSILGAGIITQPFAIKNAGILGGLLSYVALGFIVDWTLRLIVINLTLAGKRTYQGTVEHVMGKKGKLLILFTNGLFAFGGCIGYCIIIGDTIPHVLRAIFSQNDGNVHFWLRRNVIIVMVTTFISFPLSMKRNIEALSKASFLAVISMIIIVLTVVIRGPMLPYDWKGHSLKLSDFFMKATIFRSLSVISFALVCHHNTSFIFFSMRNRSVAKFTRLTHISIIISVICCALMGYSGFAVFKEKTKGNVLNSFPGTDTAINIARLCFGFNMLTTFPMEIFVLRDVVGNLLHECNLIKNYDEHTQLSGKQHVVITSSLVFITMGISLTTCNLGALFELIGATTASTMAYILPPYTNLLLTSKKKSWKERLPFYLCICFGFMIMIISSTQTIIDAVNGSDGQHCQI
modifications: GST-His6 tag
notes: as for B1
B7: MUB1: yeast GST-HisX6 fusion protein on proteome chip (protein, UniProt Q03162 1-620, looked up)
MYND-type zinc finger protein …: MRDSNHRSLTSNKPIVTITSTVYDRRALDINSSIPLINSLNYLTYLTSNSSKVRETVANDGALERLVSILRSCHLSLFELLDLDLENFNEHENIKDLWKEKRLALCAWKWTLTFQCLVLTGTRGTEQIRKKVVMSGVLSVLVTVLDNYLLYHKNYDFIKDQTMTFDFKGITTETMYKFMRKDENETYQQYIEFITGQDKLKLSTDKNFLNERLVAPSMTIPTDFSDIWGRFADLASNFEPDQERHDDDIDIDSEVESENFDAHKNFFSQPDINRPTISTPREFFLGRIVPKQDDVIWSLQLLAFVSKYTYMKSTLQNVELVESLSFRSMAYKIKQRISEENDLEEQERDVTVKLSSLYPYLSKNPENNSKVKALDTSKMDPFFKELEELSNRCQQEEQNEICNNHCPVLNLFERYRVPKPSDDNAYGKDKERINLRKKISDNFERRWSYDKMKKELTNIVYKNKVLTNVVNIFPLVEKYTVSAENTHDVIYWSSVIMRNSCRKNEILGVRQCANFSCGKWEDFPRQFAKCRRCKRTKYCSRKCQLKAWGYHRYWCHEVGSSHMRSTNTTTGVNTPNEPSSLNATATTAADVSNSTSTFTPNISTTVPDEISNRDENSIPE
modifications: GST-HisX6 tag
notes: as for B1

System: PI(4,5)P2 liposomes
Assay: Yeast proteome chip probed with PI(4,5)P2 liposomes
Conditions: liposome binding signal on yeast proteome chip, Cy3-streptavidin detection

| Molecule | PI(4, 5)P2 |
| --- | --- |
| B1 | 14.15 |
| B2 | 21.99 |
| B3 | 282.63 |
| B4 | 233.85 |
| B5 | 14.37 |
| B6 | 6.53 |
| B7 | −4.79 |

System: PI(3)P liposomes
Assay: Yeast proteome chip probed with PI(3)P liposomes
Conditions: liposome binding signal on yeast proteome chip, Cy3-streptavidin detection

| Molecule | PI(3)P |
| --- | --- |
| B1 | 2.00 |
| B2 | 28.75 |
| B3 | 318.00 |
| B4 | 99.50 |
| B5 | −6.50 |
| B6 | −5.00 |
| B7 | −6.00 |

System: PI(3,4)P2 liposomes
Assay: Yeast proteome chip probed with PI(3,4)P2 liposomes
Conditions: liposome binding signal on yeast proteome chip, Cy3-streptavidin detection

| Molecule | PI(3, 4)P2 |
| --- | --- |
| B1 | 4.71 |
| B2 | 19.62 |
| B3 | 249.28 |
| B4 | 245.20 |
| B5 | 18.99 |
| B6 | −3.14 |
| B7 | 9.89 |

System: phosphatidylcholine (PC) liposomes
Assay: Yeast proteome chip probed with PC liposomes
Conditions: liposome binding signal on yeast proteome chip, Cy3-streptavidin detection
Outline: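 Sonicated liposomes in TBS, of phosphatidylcholine with 1% (w/w) biotin-DHPE plus 5% (w/w) of the named phosphoinositide (PC-only liposomes lacking it), were incubated on blocked chips of GST-RGS-His6-tagged yeast ORF proteins for 1 h at RT. Bound liposomes were detected with Cy3- or Cy5-streptavidin after PBS washes.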

| Molecule | PC |
| --- | --- |
| B1 | −4.70 |
| B2 | −1.17 |
| B3 | 621.00 |
| B4 | 854.02 |
| B5 | 5.58 |
| B6 | 5.28 |
| B7 | 2.64 |

System: PI(4)P liposomes
Assay: Yeast proteome chip probed with PI(4)P liposomes
Conditions: liposome binding signal on yeast proteome chip, Cy3-streptavidin detection

| Molecule | PI(4)P |
| --- | --- |
| B1 | 13.28 |
| B2 | 28.74 |
| B3 | 666.29 |
| B4 | 1431.44 |
| B5 | 0.44 |
| B6 | −3.92 |
| B7 | 19.38 |

System: PI(3,4,5)P3 liposomes
Assay: Yeast proteome chip probed with PI(3,4,5)P3 liposomes
Conditions: liposome binding signal on yeast proteome chip, Cy3-streptavidin detection

| Molecule | PI(3, 4, 5)P3 |
| --- | --- |
| B1 | −2.14 |
| B2 | 13.16 |
| B3 | 108.67 |
| B4 | 269.10 |
| B5 | −9.22 |
| B6 | −0.90 |
| B7 | 9.79 |
